From doi:10.1101/2023.06.13.544830

Target: T1, OC2 (CUT-HOX) (human, UniProt O95948 330-485)
T1 sequence: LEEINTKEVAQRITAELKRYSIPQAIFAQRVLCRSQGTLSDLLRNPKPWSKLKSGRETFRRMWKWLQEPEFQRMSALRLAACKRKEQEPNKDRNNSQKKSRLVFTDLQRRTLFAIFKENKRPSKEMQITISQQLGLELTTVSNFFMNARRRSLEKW
Assay: BLI

B1: PEG10 promoter duplex, biotinylated (dsDNA)
DNA 1: AGATCGATTTGC
DNA 2: GCAAATCGATCT
modifications: 5'-biotin on one strand
binding result: binds
